Data from article PMC4027207, “Molecular dissection of the domain architecture and catalytic activities of human PrimPol” (Nucleic Acids Research, 2014).

Biological target: T1, PrimPol372-560/ZF-KO (Homo sapiens, UniProt Q96LW4 372-560, C419A;H426A)
T1 sequence: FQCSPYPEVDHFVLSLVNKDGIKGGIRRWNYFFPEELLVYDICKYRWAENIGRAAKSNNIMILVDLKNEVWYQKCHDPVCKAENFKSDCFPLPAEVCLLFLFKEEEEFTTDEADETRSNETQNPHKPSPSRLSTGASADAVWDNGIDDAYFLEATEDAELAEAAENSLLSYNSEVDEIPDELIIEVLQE
Assay: EMSA; 10 mM Mg2+; 40 nM DNA; no binding, protein 0.05-20 uM; 10 mM Bis-Tris-Propane-HCl pH 7.0, 10 mM MgCl2, 1 mM DTT, 40 nM DNA, 25°C, 60 min; 5% polyacrylamide gel in 0.5x TBE
Settings: protein: recombinant; tags: His (Ni-NTA purified); label: 5'-Hex

TGTCGTCTGTTCGGTCGTTCGGTCTTCAAGGCTGTTGTGCGCCCTGCGCG (ssDNA) [HP-50 ssDNA (sequence 7)]: no binding.
